The values that follow come from patent publication US6897296.

In this assay the target is bacterially expressed recombinant Mch4 (GST-Mch4 fusion protein) (human).

What is called Ki is the equilibrium dissociation constant of an inhibitor or competing ligand from its target.

As to DEVD-CHO (tetrapeptide DEVD aldehyde), the Ki is 0.014 µM.
